How the values were obtained:
CDC42Hs [1] = molecular target: T1, CDC42Hs (human, UniProt P60953)
CDC42Hs [2] = molecular target: T1, CDC42Hs; assay: inferred from the dose response of GDI activity; reference rhoGDI
[3] = molecular target: rac 1 (Homo sapiens (Human)) (UniProt P63000); assay: as above
CDC42Hs [4] = molecular target: T1, CDC42Hs; assay: cell-based or functional assay
CDC42Hs (human) [5] = molecular target: CDC42Hs (human) (UniProt P60953)
CDC42Hs (human) [6] = molecular target: CDC42Hs (human) (UniProt P60953); remark: listed apart in the source
CDC42Hs (human) [7] = molecular target: CDC42Hs (human) (UniProt P60953); assay: inferred from the dose response of GDI activity; reference rhoGDI

human D4 protein
GDI activity (times more concentration than rhoGDI) (CDC42Hs [1]): > 10
times lower binding than rhoGDI (CDC42Hs [2]): 30 to 40 times
times lower binding than rhoGDI [3]: 30 to 40 times

B1: GST-GN LC (chimera of the entire rho GDI sequence except that the carboxyl terminal 33 amino acids were from LD4) (other)
chain: MAEQEPTAEQLAQIAAENEEDEHSVNYKPPAQKSIQEIQELDKDDESLRKYKEALLGRVAVSADPNVPNVVVTGLTLVCSSAPGPLELDLTGDLESFKKQSFVLKEGVEYRIKISFRVNREIVSGMKYIQHTYRKGVKIDKTDYMVGSYGPRAEEYEFLTPVEEAPKGMLAQDTYHNKSFFTDDDKQDHLSWEWNLSIKKEWTE
GDP dissociation inhibition assay (CDC42Hs [4]): ≥ 20 fold less effective than rho GDI

B2: GST-mD4 (glutathione-S-transferase fusion protein of murine D4) (protein)
chain: MTEKDAQPQLEEADDDLDSKLNYKPPPQKSLKELQEMDKDDESLTKYKKTLLGDVPVVADPTVPNVTVTRLSLVCDSAPGPITMDLTGDLEALKKDTFVLKEGIEYRVKINFKVNKDIVSGLKYVQHTYRTGMRVDKATFMVGSYGPRPEEYEFLTPVEEAPKGMLARGTYHNKSFFTDDDKQDHLTWEWNLAIKKDWTEZ
GDI activity (times more concentration than rhoGDI) (CDC42Hs (human) [5]): > 10
apparent EC50, GDP dissociation inhibition assay (CDC42Hs (human) [6]): 7 to 8 µM
times lower binding than rhoGDI (CDC42Hs (human) [7]): 30 to 40 times

B3: GST-LD4 (glutathione-S-transferase fusion protein of LD4) (other)
chain: MTEKAPEPHVEEDDDDELDSKLNYKPPPQKSLKELQEMDKDDESLIKYKKTLLGDGPVVTDPKAPNVVVTRLTLVCESAPGPITMDLTGDLEALKKETIVLKEGSEYRVKIHFKVNRDIVSGLKYVQHTYRTGVKVDKATFMVGSYGPRPEEYEFLTPVEEAPKGMLAQDTYHNKSFFTDDDKQDHLSWEWNLSIKKEWTE
apparent EC50, GDP dissociation inhibition assay (CDC42Hs [4]): 7 to 8 µM
